Measured values: paper PMC12014896 (2025)
Substitutions are numbered along the chain they refer to.

B1: COVIC-267 (antibody, V domains shown)
VH: EVQLVESGGGLVQPGGSLRLSCTVSGFSLSSYAMSWVRQAPGKGLEWIGIIGNSGNTYYASWAKGRFTISRDNSKNTLYLQMNSLRAEDTAVYYCARNWDPDSYEYTYATNSFDPWGQGTLVTVSS
VL: DIQMTQSPSSLSASVGDRVTITCQASESISSYLAWYQQKPGKAPKLLIYRASTLESGVPSRFSGSGSGTDFTLTISSLQPEDFATYYCQCTYGSSSSGSYGNAFGGGTKVEIK
B2: COVIC-157 (antibody, V domains shown)
VH: EVQLVESGGGLIQPGGSLRLSCAASGFTVSSNYMNWVRQAPGKGLEWVSVIYSGGSTYYADSVKGRFTISRDNSKNTLYLQMNSLRTEDTAVYYCARDLVAYGMDVWGQGTTVTVSS
VL: DIQLTQSPSFLSASVGDRVTITCWASQGISSYLAWYQQKPGKAPKVLIYAASTLQSGVPSRFSGSGSGTEFTLTISSLQPEDFATYYCQLLNSNPLTFGGGTKVEIKR
B3: COVIC-150 (antibody, V domains shown)
VH: B2 VH with F27V, N35S, Y58F, T87A, V100S, A101Y
VL: B2 VL with V46L, R61K, L90Q, N94Y, L96S, T97S, G100Q, V104L
B4: COVIC-56 (antibody)
chain 1: not shown
chain 2: QVQLQESGGGLVQAGGSLRLSCAASGRTFSEYAMGWFRQAPGKEREFVATISWSGGSTYYTDSVKGRFTISRDNAKNTVYLQMNSLKPDDTAVYYCAAAGLGTVVSEWDYDYDYWGQGTQVTVSSGGGGSGGGGSKRTVAAPSVFIFPPSDEQLKSGTASVVCLLNNFYPREAKVQWKVDNALQSGNSQESVTEQDSKDSTYSLSSTLTLSKADYEKHKVYACEVTHQGLSSPVTKSFNRGEC
B5: COVIC-361 (antibody, V domains shown)
VH: EVQLVESGGGLVQPGGSLRLSCKASGISVAPHAVTWVRQAPGKGLEWIGVIASNADTYYASWAKGRFTISRDNSKNTLYLQMNSLRAEDTAVYYCARHPGSAGYGYTYYYAMDPWGQGTLVTVSS
VL: DIQMTQSPSSLSASVGDRVTITCQASQDVKYAINWYQQKPGKAPKLLIYGTSSRGEGVPSRFSGSGSGTDYTLTISSLQPEDFATYYCQQGYVVSIFFGGGTKVEIK
B6: COVIC-260 (antibody, V domains shown)
VH: QVQLQESGPGLVKPSETLSLTCSVSGDSISSSDYSWGWIRQPPGKGLEWIGTIYYIKNTYYNPSLRSRVTLSVDTSKNLFSLKLSSVTAADTAVYYCARERPPFDVVVVPAARPYNWFDPWGLGTLVIVSS
VL: QSVLMQPPSVSGAPGQRVTISCTGSSSNIGAGYDVHWYQQLPGTAPKLLIYGNNNRPSGVPDRFSGSKSGTSASLAITGLQADDEADYYCQSYDSSLSGSKVFGGGTKLTVLG
B7: COVIC-298 (antibody, V domains shown)
VH: EVQLVQSGAEVKKPGESLKISCQGSGFSFSNYWIGWVRQMPGKGLEWMGIIYPDDSDTRYSPSFQGQVTISADKSISTAFLQWSSLKASDTAMYYCATRTGWTNDAFDIWGQGTMVTVSS
VL: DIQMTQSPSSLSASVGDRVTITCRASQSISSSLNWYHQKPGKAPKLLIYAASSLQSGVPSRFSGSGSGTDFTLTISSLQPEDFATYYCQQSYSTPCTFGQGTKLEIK
B8: COVIC-300 (antibody, V domains shown)
VH: EVQLVESGGGLIQPGGSLRLSCAASGFIVSSNYMSWVRQAPGKGLEWVSVIYSGGITYFADSVKGRFTISRDISKNTLYLQMNSLRAEDTAVYYCARDRRLPHYYYGLDVWGQGTTVTVSS
VL: QSVLTQPASVSGSPGQSITISCTGTSSDVGGYNYVSWYQQHPGKAPTLIIYEVTSRPSGVSNRFSGSKSGNTASLTISGLQAEDEADYYCSSYTTSNTLGGVFGTGTKVTVL
B9: COVIC-335 (antibody, V domains shown)
VH: QVQLVESGGGVVQPGRSLRLSCAASGFTFSRYGMHWVRQAPGKGLEWVALISSGGSNKYYADSVKGRFTISRDNSKNTLYLEMNSLRAEDTAVYYCAKDAIYDYIWGAYRENWFDPWGQGTLVTVSS
VL: DIQMTQSPSSLSASVGDRVTITCRASQSISNYLNWYQQKPGKAPNLLIYAASSLQSGVPSRFSGSGSGTDFTLTISSLQPEDFATYYCQQTSSPPLTFGQGTKVEIK
B10: COVIC-304 (antibody, V domains shown)
VH: QVQLQQWGAGLLKPSETLSLKCAVYGGSFSGYYWGWIRQSTGKGLEWIGEINRSGSTNYNPSLKSRVTISVDTSKNQFSLKLSSVTAADTAVYYCARGGARYYYGSGSYRSTPRPYYFDYWGQGTLVTVSS
VL: SYELTQPPSVSVAPGETARITCGGDNIGRRHVHWYQQKPGQAPVLVIYDDSDRPSGIPDRFSGSNSGNTATLTIGRVEAGDEADYYCQVWGSSNDPHVFGTGTKLTVLG
B11: COVIC-301 (antibody, V domains shown)
VH: EVQLVESGGGLIQPGGSLRLSCAASGVTVSSNYMSWVRQAPGKGLEWVSIIYPGGSRFYADSVKGRFTISRDNSKNTLYLQMNSLRAEDTAVYYCAREVRGWLDPWGQGTLVTVSS
VL: DVVMTQSPSFLSASVGDRVTITCRASQGISNYLAWYQQKPGKAPKLLIYASSTLQSGVPSRFSGSGSGTEFTLTISSLQPEDFATYYCQHLNSYPHFGQGTRLEIKR
B12: COVIC-96 (antibody, V domains shown)
VH: QVQLVQSGAEVKKPGSSVKVSCKASGGTFSTSTISWVRQAPGQGLEWMGGIIPLFGSPNYAQKFQGRVTITADESTSTAYMELSSLRFEDTAVYYCARLGQWDLLPRWGQGTLVTVSS
VL: EIVLTQSPGTLSLSPGERATLSCRASQSVSSSYLAWYQQKPGQAPRLLIYGASSRASGTPDRFSGRGSGTDFTLTISRLEPEDFAVYYCQQYGSSYTFGQGTKLEIK
B13: COVIC-148 (antibody, V domains shown)
VH: QVQLVQSGAEVKKPGASVKVSCKASGYTFTSYDINWVRQATGQGLEWMGWMNPNSGNTGYAQKFQGRVTMTRDTSINTAYMELSSLRSEDTAVYFCARGGRYCSDVTCYSGEPFDYWGQGTLVTVSS
VL: EIMLTQSPDFQSVTPKEKVTITCRASQSIGSSLHWYQQKPDQSPKLLIKFASQSISGVPSRFSGSGSGTDFTLTINSLEAEDAAAYYCHQSSSLPHTFGPGTKVEIKR
B14: COVIC-94 (antibody, V domains shown)
VH: EVQLVESGGGLVQPGGSLRLSCAASGFTFSPSWMGWFRQAPGKEREFVATINEYGGRNYADSVKGRFTISADNSKNTAYLQMNSLKPEDTAVYYCARVDRDFDYWGQGTLVTVSS
B15: COVIC-259 (antibody, V domains shown)
VH: EVQLVESGGGVVQPGRSLRLSCAASGFTFSSYAMHWVRQAPGKGLEWVAVLSYDGSNKYNADSVKGRFTISRDNSKNTLYLQMNSLRVEDTAMYYCARDGVSVTMVRGVIGPLCDYWGQGTLVTVSS
VL: not shown
B16: COVIC-97 (antibody, V domains shown)
VH: EVQLVESGPEVKKPGTSVKVPCKASGFTFTSSAVQWVRQARGQRLEWIGWIVVGSGNTNYAQKFQERVTITRDMSTSTAYMELSSLRSEDTAVYYCAAPSCSGGRCYDGFDIWGQGTMVTVSS
VL: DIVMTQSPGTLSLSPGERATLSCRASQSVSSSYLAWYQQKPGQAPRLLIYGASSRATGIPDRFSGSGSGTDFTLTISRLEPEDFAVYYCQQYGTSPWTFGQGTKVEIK
B17: COVIC-338 (antibody, V domains shown)
VH: EVQLVESGGGLVQPGRSLRLSCAASGLTFEDYAMHWVRQPPGKGLEWVSGVSWNSGTIGYADSVKGRFTISRDNAKNSLYLHMRSLGAEDTAMYYCAKDMGGRFSFFSLENDAFDIWGQGTMVIVSS
VL: SYELTQPPSVSVSPGQTARITCSGDALPKQSTYWYQQKPGQAPVLVIYKDIERPSGIPERFSGSSSGTTVTLTISGVQAEDEADYYCQSADSSDTYVFGTGTKVTVL

These binders were tested against SARS-CoV-2 spike RBD (Wuhan-Hu-1) (Severe acute respiratory syndrome …, UniProt P0DTC2) (assay: SPR).

First: B1
Second: B2
The Kd of the first is 3.4-fold lower: 1.95 nM for the first, 6.65 nM for the second.

B3 and B4 are within 1.5-fold of each other in Kd: 141 nM for the first, 94.2 nM for the second.

First: B5
Second: B6
The Kd of the first is 2.9-fold lower: 0.0241 nM for the first, 0.0696 nM for the second. The first binds more tightly here.

First: B7
Second: B8
The Kd of the first is 1.8-fold lower: 0.629 nM for the first, 1.13 nM for the second.

Going from B9 to B10, the Kd rises from 9 nM to 197 nM (22-fold). The first binds more tightly here.

First: B11
Second: B12
The Kd of the first is 59-fold lower: 1.55 nM for the first, 92.2 nM for the second. The first binds more tightly here.

Going from B13 to B14, the Kd rises from 1.85 nM to 5.62 nM (3-fold). The first binds more tightly here.

Going from B15 to B16, the Kd rises from 2.1 nM to 4.96 nM (2.4-fold).

Binder B17 has a Kd of 0.00664 nM.
